Common to all, as to assay type: functional, cell-based
Substrate in data set [1]: Nc1nc(O)c2ncn(COC(CO)CO)c2n1
The experiment in a line: (§1) TP_TRANSPORTER: uptake in OCT1-expressing S2 cells.

Substrate in data set [2]: Nc1nc2c(ncn2COCCO)c(=O)[nH]1
The description is as §1.

Substrate in data set [3]: CC(C)[C@H](N)C(=O)OCCOCn1cnc2c(=O)[nH]c(N)nc21
Put plainly: TP_TRANSPORTER: uptake in OAT3-expressing S2 cells.

Substrate in data set [4]: Nc1nc(O)c2ncn(COC(CO)CO)c2n1
The experiment in a line: (§2) TP_TRANSPORTER: uptake in OAT1-expressing S2 cells.

Substrate in data set [5]: Nc1nc2c(ncn2COCCO)c(=O)[nH]1
The description is as §2.

B1: Solute carrier family 22 member 1 (Homo sapiens) (protein)
chain: MPTVDDILEQVGESGWFQKQAFLILCLLSAAFAPICVGIVFLGFTPDHHCQSPGVAELSQRCGWSPAEELNYTVPGLGPAGEAFLGQCRRYEVDWNQSALSCVDPLASLATNRSHLPLGPCQDGWVYDTPGSSIVTEFNLVCADSWKLDLFQSCLNAGFLFGSLGVGYFADRFGRKLCLLGTVLVNAVSGVLMAFSPNYMSMLLFRLLQGLVSKGNWMAGYTLITEFVGSGSRRTVAIMYQMAFTVGLVALTGLAYALPHWRWLQLAVSLPTFLFLLYYWCVPESPRWLLSQKRNTEAIKIMDHIAQKNGKLPPADLKMLSLEEDVTEKLSPSFADLFRTPRLRKRTFILMYLWFTDSVLYQGLILHMGATSGNLYLDFLYSALVEIPGAFIALITIDRVGRIYPMAMSNLLAGAACLVMIFISPDLHWLNIIIMCVGRMGITIAIQMICLVNAELYPTFVRNLGVMVCSSLCDIGGIITPFIVFRLREVWQALPLILFAVLGLLAAGVTLLLPETKGVALPETMKDAENLGRKAKPKENTIYLKVQTSEPSGT
The term Km denotes the concentration of substrate that gives half-maximal velocity. For B1, the results for the Michaelis constant (Km) in data set [1] and in data set [2] were 516 µM and 151 µM, respectively.

B2: Organic anion transporter 3 (Homo sapiens) (protein)
chain: MTFSEILDRVGSMGHFQFLHVAILGLPILNMANHNLLQIFTAATPVHHCRPPHNASTGPWVLPMGPNGKPERCLRFVHPPNASLPNDTQRAMEPCLDGWVYNSTKDSIVTEWDLVCNSNKLKEMAQSIFMAGILIGGLVLGDLSDRFGRRPILTCSYLLLAASGSGAAFSPTFPIYMVFRFLCGFGISGITLSTVILNVEWVPTRMRAIMSTALGYCYTFGQFILPGLAYAIPQWRWLQLTVSIPFFVFFLSSWWTPESIRWLVLSGKSSKALKILRRVAVFNGKKEEGERLSLEELKLNLQKEISLAKAKYTASDLFRIPMLRRMTFCLSLAWFATGFAYYSLAMGVEEFGVNLYILQIIFGGVDVPAKFITILSLSYLGRHTTQAAALLLAGGAILALTFVPLDLQTVRTVLAVFGKGCLSSSFSCLFLYTSELYPTVIRQTGMGVSNLWTRVGSMVSPLVKITGEVQPFIPNIIYGITALLGGSAALFLPETLNQPLPETIEDLENWSLRAKKPKQEPEVEKASQRIPLQPHGPGLGSS
B2: the Km in data set [3] stood at 57.9 µM.

B3: Solute carrier family 22 member 6 (Homo sapiens) (protein)
chain: MAFNDLLQQVGGVGRFQQIQVTLVVLPLLLMASHNTLQNFTAAIPTHHCRPPADANLSKNGGLEVWLPRDRQGQPESCLRFTSPQWGLPFLNGTEANGTGATEPCTDGWIYDNSTFPSTIVTEWDLVCSHRALRQLAQSLYMVGVLLGAMVFGYLADRLGRRKVLILNYLQTAVSGTCAAFAPNFPIYCAFRLLSGMALAGISLNCMTLNVEWMPIHTRACVGTLIGYVYSLGQFLLAGVAYAVPHWRHLQLLVSAPFFAFFIYSWFFIESARWHSSSGRLDLTLRALQRVARINGKREEGAKLSMEVLRASLQKELTMGKGQASAMELLRCPTLRHLFLCLSMLWFATSFAYYGLVMDLQGFGVSIYLIQVIFGAVDLPAKLVGFLVINSLGRRPAQMAALLLAGICILLNGVIPQDQSIVRTSLAVLGKGCLAASFNCIFLYTGELYPTMIRQTGMGMGSTMARVGSIVSPLVSMTAELYPSMPLFIYGAVPVAASAVTVLLPETLGQPLPDTVQDLESRWAPTQKEAGIYPRKGKQTRQQQEHQKYMVPLQASAQEKNGL
Regarding B3, the Michaelis-Menten constant (Km) came out at 896 µM in data set [4] and 342 µM in data set [5].

The record behind these values is ChEMBL document CHEMBL2074052, “Human organic anion transporters and human organic cation transporters mediate renal antiviral transport” (J Pharmacol Exp Ther, 2002).
